# The domain aggregation screens of Martell et al. (2025)
# Test: soluble fraction after stress (log2 fold change); higher = more stays soluble; pooled small domains, quantitative proteomics
# Conditions: stress: pH 4
# How it was run: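 Aggregation propensity is estimated from the fold change in each domain's soluble amount after acid stress. Pooled small-domain libraries were stressed at pH 4, and higher log2 values mean more stayed soluble.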
row,Sequence,soluble fraction (log2)
1,HMFASSADGVEGLKTNPIFASTKEKSDAGKLLYTRYLAIGIFRMLELAKATDPKALEALVEAGG,0.147
2,HMGQSKNERMLELVELLNKASRSYYQDAQEIMSNYEYDRLYDELQNLEKELGITLSNSPTVN,-1.3
3,HMEITTEDIAAQVASWIVRLSEDLTSTDRAALQIEFEQWQQTDSRRAEIAHKMLSLIGQAEQLRKT,-0.614
4,HMTASKSTVSTPEKVVYHIVFPKETKYSIAKKYGITIEELEKRNPEIIPSLSVGQKLVIKGTAPK,0.173
5,HMSLIHEQSLKEIRIFINNLPESLRTAFTLREQDGLSYEEISKITDTPIGTVRSRIFRARESILEHINEEL,-0.599
6,HMIVDARNREINLGSHVRYVDTGTVGEVTDSKVENDASWVKIDKTNLWYLANKLELLNDEDFKT,-0.517
7,HMDDEDLAFLQREFVSYQQAMDYYGLGYKPVVRLSHISGSVYKIGKKVLIRRNIFEEYLRNHV,-0.666
8,HMQQDGSSSLGENMLNQELQARGVVPSEIPQEVWERVIQEAGKKSKREIYADIGLGRSLAAGFAQRLAA,-0.0576
9,HMDQPLIEPLSERELEVLSLIAAGYSNAEIAERLVIAVGTVKRHINNLYGKLGAGSRTQALAIAREIGLM,-0.661
10,HMIITLNIENLKRARENAGLTQTQAAQKIGVSDGTYKNYEQGKREPNGDKIVTIANAFGVTTDYLLGR,0.22
11,HMKSSLAKNLETLMQERQISQTRLSKISGVSQSYIFKILNDQIKKPSLDTLEKLATALDSTVAQLNH,0.191
12,HMDHWQSVNSALELLEVSRRTLYDYISRKKLQTKKEGKYRYVWIDDDVIEEIKTSKSAYIEINN,-1.08
13,HMTGYVMIRVDGLSLEKFLNMAAEAGVRVSDVRRASYTVLYAVVSPRDLKKLQSVAPEKYTVTVR,-0.23
14,HMGIRDIHITVNGESLKLSKKQNYIFVDIFDFYPFDLSILGGSKLITTINGEQAEFTSPLKDGDVVELYWK,-0.977
15,HMPTLSKVGSQGEEVRQIQTKLKNWGYLNDRVDGIYGPKTRDAVIWFQKKNGLVADGIAGPATLKAMGIFT,≥ 0.43
16,HMNKYNNIEDLKEEDFENISEKYQVPVSFVKSKLDDLINWHEKNPQKNHYKNYLSALRDWVKRDSLKIKL,0.0178
17,HMNQPRQRKVIFELIDERNALERVLMHFAHLEKQVEKIDERKYQVTLYYDKEDETEILIRVLSFG,-1.16
18,HMIIIMKKSATNSEVRKVIERAEKEGLTVQVNQLEKQQVLGLVGDTRLIQDVAFLRYEGVENVERI,0.206
19,HMRIDVWLAENGFAPSRQKAQDLIAAGRVFQTDPSGRRQKVSKASAAVDPALSPKIEVIPDPE,0.068
20,HMSEQVTMIDVEGKTETEAKKALEDLGLKVEITYESADAAAGTVIGQDVKAGSTVSEGSRVTLTVSGQ,-0.211
21,HMNIGEKIKKIRTQQNKSTYELADIINKNGFKISQSAISKIENGRKKIDIETLEEIAKALDIEVDLLIT,-0.282
22,HMFDGTLSIYPNPSKGIFNLDLLNVKDGEYTITVDNLLGQEVYSEIRNVINSSSKTLDLSNLTKGV,-0.433
23,HMSTRYVRTPAGQAEIQARVFKLSRPVRNLLLVINDSRSIDDWLVQVHGITADDVAMLRAEGLIAEVS,-0.214
24,HMKTGNIITVSLVWKGKYYMIRMFFPSASRPTRSDVQNEIEKVYPGSKLSTFSVSDYEPGQPLLQV,-0.092
25,HMALENTDLYAHLRLSHTASVPEIQAALSARVKHMPLQTWLLARKWLLHPRLRERYDGMWSVRFGA,-0.136
26,HMAAHWANFLEALRAGRARRVLVARGVEGWLLKELERLGAPYTLVPRIELDTLLRTTHHQGIAAEVE,-0.748

row,Sequence,soluble fraction (log2)
1,HMKNTLDAYIRYLSNFLSRNNYPEAEDLSFINARADQAYEVFLEARRGGVDVSTAEELAMIALMQGY,-1.34
2,HMNSRAERKEAAKEAIRNLLREGMTFEELTGPWLEKRFAEEPFNRGARSWQMLISEIKEEPEFQHL,-0.916
3,HMLQPQMKKFLNYESARNKMRPFGLSTRKEWRLFVDEGNRPADIPGDPYKKYKNKGWISWPHFLGK,0.0515
4,HMGASIQITVNNTPVMLKNKTHYTLVDVLDFYPFDLSKMGGTELYTAINGVKSGFTDPVHANDSIEIYWI,0.196
5,HMTHANAALTPRHRLKVARLVVDEGWPVSEVAARFQVSWPTVKRWADRYRAGQSMQDRSSRP,0.228
6,HMNALREVNTSILNVRSGAGTNYSKIGSLTQATRVSVISESNGWSKINYNGKVGYVSSQYLS,≥ 0.43
7,HMFMKNTEVALAIKGKFSNQTTITSKELVLFLSDLFPELSNKTIPWKINQLKAENLIYQTGRGIYTFN,-0.809
8,HMSPAVEDYLEQIHNLIAQKGYARVVDIAGNLKISQASVTNMIQRMDADGLVVYERYRGVVLTETGRK,-0.456
9,HMNSNTIIINDIMTKIGKEVKNFTEIYSIILKALAEHGEEYVRTNTEYALKNFTGNFDIFLEQLLLK,-0.219
10,HMKNAMTDIYLEEIKKILTKNEFLVYTLRELNNFSVQFITDNYDLSEKTIYNSVYRAKKKIDRHFT,-0.696
11,HMGMFNENLRFLRQKRQMSQQAFASILGIPRTTYSEYEKGNTEPNLKLLIRLSELLDVSLDNLISDDLTHN,-0.642
12,HMRRSKVMLESILDEIPQMGQARRAALLEQFGSVAALRKASLAEIAMTPGIGEKIAVIIFEYLQKSSH,-0.067
13,HMKKYEIIFNDLKQSIVNGKYSNEERLPPEETLAKKYQTSRVPVQQALNALVGIGMVKRIAGSGTYVTY,-0.212
14,HMPELPPHELLRALMVEHDIKQSELPEVGPQPVVSDVLAGKRALNLRQVAALAARFHVPMEVFT,-0.015
15,HMTIPSYAEAVRYVRRQPRINTSTLADGLGIRWSLALDYLERMARSGVVGAIEDDGWWPVAR,0.329
16,HMNAKVVAPIPGTVLSIDIKVGDVIKIGDRLLVLEAMKMENNIASEKSGTVTAVHVKVGQQVLQNELMIEL,-1.2
17,HMNVPFGFDEVNGKLVKNEEEQAIISEIKSLKNKGLSLRKIAEALNGRGIATKNGKAWTAVQIQRIA,0.22
18,HMAISSADRIVAELRTWISGASPGTQLPSSRTLAARYGASPVTVQKALHTLAGMGLVEARPGAGTFVRRQS,≥ 0.43
19,HMTNQEFNEVFKLLLAAYPNTKDKESVATIYFLTIANELTKKEFAEAVVKILKTRKSGFIPQPAEILEVAK,-0.208
20,HMYSDDNKSILNLIDNLFNKENIKIDINAKKLLSNYLGVDRLVTKGEIEKAILFAGTKKHLSIEDISAFLS,-0.992
21,HMNLGETIYNLRKEKKLSQGDLAEQLSVSRQSVSKWENNSAVPDLDKLVKLSTIFGVSLDELVKG,0.409
22,HMEFGEVLAQLRQKRHISQAELGRAIFVSGGTISNYEKGVHFPDVEKLLLLADYFNVTTDYLLGRT,-0.169
23,HMSEIKDRLREARRNKGLSQAGLSKLLGVSQASIAAIESGRNKRPTNLVSIAKALDVSPYWLETGK,0.0733
24,HMNSRQPEEEALFELLAKNPYSDEQLEEIRIAIGSGISYKDVLVIADIKNTAKQMKKLRLKFTKDTG,0.118
25,HMAHSDEAWSVARRVARELDKILDGAGPRRTALVRAAAELRLSTRQIYNLLARYRADRTVTSLLPRR,-0.353
26,HMPDVAIMNVSVEPEKKVVRLQVKAISLEALLDFSTRLEAIPARVELQNHTPSKELSQKWAVNATLIVIY,-0.0366

row,Sequence,soluble fraction (log2)
1,HMNTIIHPIRLAYVDSGSIKSMAEQAEIDVKILTSEANSQIFWAIGDEKQIDRLYNLISQVDIIQNK,-1.42
2,HMVVRRLPFGFSKRFGVLVVPGTSNPVELLYREDASMQSLLEARRVVAQPVAFKKTDVESFNAQLARAHEN,-0.122
3,HMRAVPTKLAPFVEVLKAMLEADGHRPKAQRRTAKALHLELISRGYAGGYTRLTDYIRDWRQQQG,-0.411
4,HMTDFLKTRIDTLGLSTRTLNALSEANVRTIGGIARKKQEDLLEIDGIGEKGIQEIKKMLGEYGITL,-0.52
5,HMSEKELTDLIERIKERRLKLEMSYQDLSDATGISKSTLQRYETGYIKKVPINQIEILAKALHTTPSYLMG,0.0791
6,HMKYNYEAQQSDELSLVKGSRIHVLEKSSDGWWKGEIDNVVGWFPS,-0.102
7,HMSVSEAELAEKYHADDLEALKSGKLHEFQENLIDRNGKKYTVQTMKDILTLSDGTRLLLGIGLD,-0.0916
8,HMYYQEDHDIILEETEDVTDPYLITLRGYIFLNNLQWVAARQAFLSADERFRHRHYSALIAPIMQTIDNAA,-1.49
9,HMKEADVRKNEILDAAGILFSEKGYDNTSVTDIMNAVGFAKGTLYHHFKSKEDIMDALIKRQTD,-0.61
10,HMEDQLDSLKDIIYDYLENNELYYNDLQEFKKIIIENMEFIHPNLNHKLIDNNFFKLINFKLEYNF,-0.828
11,HMTSPRRLYALIVEHVGKDGVMHRSDVENVLAKVESEMDVDDLLDQLEINGTIIRRQDGTWQLL,-1.66
12,HMDDISLEEIKYISSKLETKVNEIEELLVRYYDGETNEAEEKELKEFFAQADVPAHLLAEKRLFMQLASQ,-0.324
13,HMLGVLEYYNNGQKKSERTFKGGMQIYTEWYENGQMKAEERKWIDQLGSLKFLNLLSTEWDENGNEISRME,-1.28
14,HMLGYGEQEREAQKYLEMHTAFQADPSLQKMYLPENQYALISKVMEMTGIKNVKSYLTPPNEL,-0.236
15,HMASVVEQVQVSNDISLFRQQNSPYWQARFKVAGKWYTRTTKRTEQTQAAFRAAELRSEVQTKISQGIPLR,-0.00738
16,HMPKAKASARNDTRTRLLTIGTEVLSQKGFASTGVEEILSVAGVPKGAFYYYFESKAAFGLAVIENYE,0.22
17,HMDEWFPVNDDYKFMVGDEVRTPDGLVKVVATHNDSATFYGKIITPIHDDVLKGETYEYRSYEAQVLA,-1.26
18,HMAQLKYEQIKSYLQAEAVKPESATRMPTVRELMRRFNVSLVTVNRALSELEHAKVIVRRQGAGIVAAQ,0.0424
19,HMKSEMYIDLSNALLKMSERDKELLTYRYTMEMSSKEISQITGIKESNVNSYIRRAREKLLKIFNAMNK,0.123
20,HMLKRLTVEFSAEMPKKMTSEQKEELASVLSEDPRPAYQNDENREYGLDYGEFSVKFKVKDGVLTVTSVTE,0.226
21,HMGVDKLTPREREVLALMAQGASNREIEGKLVLTAGAVSKHVANVFMKLGFSPEDENRRVKAVLAWLRTK,0.225
22,HMVAMGQRVVPLTHLSIDDVRRLLESTYGKDSGIEVTKPGTAAKGVIVTAPRTELDGIVALVKQA,0.0822
23,HMGIVAPGTLKHLHAVGNSYYPDWETKRHELVTAVTKGRTSSSKELYEAEANRLITRIEELLMTAAQSV,-0.548
24,HMNELIGVEQLQDLREAIADHGFAEQRVLNWLYQATKGQVSRLEQLPLPMLTTLHKKLGQWADAEAAASSA,-0.499
